Data reported in paper PMC9105370, “Human Serine Racemase Weakly Binds the Third PDZ Domain of PSD-95” (International Journal of Molecular Sciences, 2022).
Values belong to the molecule of their own block, whether it stands above or below them.

What was measured:
[1] = target: Human serine racemase (human) (UniProt Q9GZT4)
[2] = target: Human serine racemase (human) (UniProt Q9GZT4); assay: ITC; PSD-95 PDZ3 (600 uM, syringe) titrated into hSR (20 uM, cell); 25 °C, 50 mM HEPES pH 8.0; single-site model
[3] = target: the molecule itself; assay: cross-linking; 0.1% (w/v) glutaraldehyde, 10 min, room temperature, 50 mM HEPES pH 8.0; 15 uM hSR and 30 uM PSD-95 PDZ3, together or each alone; SDS-PAGE

hSR activity (beta-elimination of L-serine, LDH-coupled assay), 0.44 uM hSR with 500 uM PSD-95 PDZ3, in the absence of ATP [1]: 22%
Kd [2]: 82 µM
Molecule: Third PDZ domain of postsynaptic density protein 95 (domain or fragment)

B1: Human serine racemase (enzyme, UniProt Q9GZT4 1-340, looked up)
chain: MCAQYCISFADVEKAHINIRDSIHLTPVLTSSILNQLTGRNLFFKCELFQKTGSFKIRGALNAVRSLVPDALERKPKAVVTHSSGNHGQALTYAAKLEGIPAYIVVPQTAPDCKKLAIQAYGASIVYCEPSDESRENVAKRVTEETEGIMVHPNQEPAVIAGQGTIALEVLNQVPLVDALVVPVGGGGMLAGIAITVKALKPSVKVYAAEPSNADDCYQSKLKGKLMPNLYPPETIADGVKSSIGLNTWPIIRDLVDDIFTVTEDEIKCATQLVWERMKLLIEPTAGVGVAAVLSQHFQTVSPEVKNICIVLSGGNVDLTSSITWVKQAERPASYQSVSV
notes: human serine racemase (EC 5.1.1.18), PLP-dependent homodimer; monomer 38 kDa; also called hSR; SR; source: E. coli BL21 CodonPlus (DE3)-RIL co-expressing GroEL and GroES, purified (TALON resin); not shown: His6, N-terminal, kept
binding result [3]: binds
